Assay results from patent publication US20220185900A1 (Regeneron, published 2022).
Numbering of substitutions follows the chain as printed. Names and notes keep the numbering of the source.

T1: Macaca fascicularis (mf) RET.mmh (Macaca fascicularis)
T1 construct: also called monkey RET
T1 chain: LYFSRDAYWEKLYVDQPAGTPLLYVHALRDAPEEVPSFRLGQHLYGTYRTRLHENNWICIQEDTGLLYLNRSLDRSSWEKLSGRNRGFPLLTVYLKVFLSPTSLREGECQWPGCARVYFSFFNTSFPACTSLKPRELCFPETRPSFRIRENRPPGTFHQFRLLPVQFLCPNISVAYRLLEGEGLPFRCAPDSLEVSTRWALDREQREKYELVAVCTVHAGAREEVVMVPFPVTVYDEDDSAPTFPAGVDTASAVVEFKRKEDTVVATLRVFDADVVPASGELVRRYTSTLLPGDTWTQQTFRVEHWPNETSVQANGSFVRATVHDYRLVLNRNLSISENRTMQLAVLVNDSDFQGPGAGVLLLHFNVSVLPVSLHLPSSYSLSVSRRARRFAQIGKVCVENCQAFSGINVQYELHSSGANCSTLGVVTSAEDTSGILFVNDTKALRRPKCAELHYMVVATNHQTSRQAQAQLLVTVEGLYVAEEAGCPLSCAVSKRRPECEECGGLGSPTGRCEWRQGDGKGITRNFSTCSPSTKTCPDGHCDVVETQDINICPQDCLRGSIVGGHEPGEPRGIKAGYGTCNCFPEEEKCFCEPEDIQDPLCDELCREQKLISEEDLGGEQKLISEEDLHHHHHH

B1: H4H8087P (antibody, human IgG4, V domains shown)
VH: QVQLVESGGGVVQPGRSLRLSCAASGFSFSSYGMHWVRQAPGKGLEWVAVMWYDGSNEYYADSVKGRFIISRDNSKSTLYLEMNSLRAEDTALYYCAREDWDEGYYYGMDVWGQGTTVTVSS
VL: DIQMTQSPSSLFASVGDRVTITCRASQDIRYDLGWYQQKPGKAPKRLIYASSILESGVPSRFSGSGSGTEYTLTISTLQSEDFAIYYCLQHNSFPWTFGQGTKVEIK
notes: human IgG4 Fc (H4H prefix)
B2: H4H8085P (antibody, human IgG4, V domains shown)
VH: QVQLVESGGGVVQPGRSLRLSCTASGFTFDNYGMHWVRQAPGKGLEWVAVISYDGSNTFYADSVKGRFTISRDNSKNALYLQMNSLRAEDTAVYYCAKDLEFDILIGYPFDSWGRGTLVTVSS
VL: DIQLTQSPSFLSASVGDRVTITCWASQDISRYLAWYQQKPGKAPNLLIYAASTLQSGVPSRFSGSGSGTEFTLTINSLQPEDFATYYCQQLFSYPRTFGQGTKVEIK
notes: human IgG4 Fc (H4H prefix)
B3: H4H8056P (antibody, human IgG4, V domains shown)
VH: QVQLVESGGGVVQPGRSLRLSCAASGFTFRNYGMHWVRQAPGKGLEWVAVKRYDGSDEYFVDSVKGRFTISRDNSKNTLFLQMNSLRVDDTAVYYCARETPITGTTLDYWGQGTLVTVSS
VL: DIQMTQSPSSLSASVGDRVTITCRTSQSITNYLNWYQQKPGKAPKLLIYAASRSQSGVPSRFSGSGSGTDFTLTISSLQPEDFATYYCQQSYSTPLTFGGGTKVEIK
notes: human IgG4 Fc (H4H prefix)
B4: H4H8058P (antibody, human IgG4, V domains shown)
VH: QVQLVESGGGVGQPGRSLRLSCVASGFTFRNYGMHWVRQAPGKGLDWVAIIGYDGSKEYNVDSVKGRFTISRDNSKNTLYLQMNSLGAEDTAIYYCARESPITGTTFDYWGQGTLVTVSS
VL: B3 VL with S9P, T25A, T30G, L46I, S54L
notes: human IgG4 Fc (H4H prefix)
B5: H4H8067P (antibody, human IgG4, V domains shown)
VH: QVQLVESGGGVVQPGRSLRLSCVASGFTFSNYGMHWVRQAPGKGLEWVALIWYDGSNKYFADSVKGRFTISRDNSKRMMFLEMNSLRAEDTAIYYCTRDRLFDFWGQGTLVTVSS
VL: AIQMTQSPSSLSASVGDRVSITCRASQDIRHDLGWFHQKPGKAPKLLIYAASTLQSGVPSRFGGSGSGTDFTLTITSLQPEDFGTYYCLQDYNYPATFGQGTRLEIK
notes: human IgG4 Fc (H4H prefix)

Target: T2, hRET.mmh (human, UniProt P07949 29-635, biotinylated in the ELISA of Example 4 (biot-hRET.mmh); not in the SPR of Example 3)
T2 construct: also called biot-hRET.mmh; soluble monomeric human RET
Assay: SPR Biacore T200, mAb capture, 25 C
Protocol: (§1) Binding affinities and kinetic constants of human anti-RET antibodies were determined by surface plasmon resonance (Biacore T200) at […] (Tables 2-3). […] Binding equilibrium dissociation constants (KD) and dissociative half-lives (t_{1/2}) were calculated from the kinetic rate constants as: KD [M]=kd/kₐ; and t_{1/2}(min)=(ln2/(60*kd). Calculations were performed using BiacoreT200 evaluation software v1.0.

Going from B1 to B2, the Kd rises from 0.27 nM to 2.34 nM (8.7-fold). The first binds more tightly here.

B3 and B4 are within 1.5-fold of each other in Kd: 2.56 nM for the first, 2.09 nM for the second.

With B5 the Kd was 2.12 nM.

B1 and B2 are within 1.5-fold of each other in koff: 0.000242 s⁻¹ for the first, 0.000187 s⁻¹ for the second.

B3 and B4 are within 1.5-fold of each other in koff: 0.000539 s⁻¹ for the first, 0.000518 s⁻¹ for the second.

Work on B5 yielded a koff of 0.000235 s⁻¹.

Compared with B1, B2 is 11-fold lower in kon: 896000 M⁻¹ s⁻¹ for the first, 80100 M⁻¹ s⁻¹ for the second.

B3 and B4 are within 1.5-fold of each other in kon: 211000 M⁻¹ s⁻¹ for the first, 248000 M⁻¹ s⁻¹ for the second.

For B5, the kon was 111000 M⁻¹ s⁻¹.

B1 and B2 are within 1.5-fold of each other in t½: 48 min for the first, 62 min for the second.

B3 and B4 are within 1.5-fold of each other in t½: 21 min for the first, 22 min for the second.

B5 was tested, and the t½ was 49 min.

Target: T1, Macaca fascicularis (mf) RET.mmh
Assay: SPR Biacore T200, mAb capture, 25 C
Protocol: as §1

First: B1
Second: B2
The Kd of the first is 8-fold lower: 0.424 nM for the first, 3.4 nM for the second.

B3 and B4 are within 1.5-fold of each other in Kd: 2.69 nM for the first, 2.35 nM for the second.

B5 showed a Kd of 385 nM.

B1 and B2 are within 1.5-fold of each other in koff: 0.000272 s⁻¹ for the first, 0.000225 s⁻¹ for the second.

B3 and B4 are within 1.5-fold of each other in koff: 0.000583 s⁻¹ for the first, 0.00054 s⁻¹ for the second.

B5 showed a koff of 0.0415 s⁻¹.

Going from B1 to B2, the kon falls from 641000 M⁻¹ s⁻¹ to 66000 M⁻¹ s⁻¹ (9.7-fold).

B3 and B4 are within 1.5-fold of each other in kon: 216000 M⁻¹ s⁻¹ for the first, 230000 M⁻¹ s⁻¹ for the second.

B5 was tested, and the kon was 108000 M⁻¹ s⁻¹.

B1 and B2 are within 1.5-fold of each other in t½: 42 min for the first, 51 min for the second.

B3 and B4 are within 1.5-fold of each other in t½: 20 min for the first, 21 min for the second.

B5 showed a t½ of 0.3 min.

Target: T3, hRET.mFc (human)
T3 construct: also called dimeric human RET
Assay: SPR Biacore T200, mAb capture, 25 C
Protocol: as §1

Compared with B1, B2 is 15-fold higher in Kd: 0.087 nM for the first, 1.33 nM for the second. The first binds more tightly here.

B3 and B4 are within 1.5-fold of each other in Kd: 1.47 nM for the first, 1.1 nM for the second.

Work on B5 yielded a Kd of 0.94 nM.

B1 and B2 are within 1.5-fold of each other in koff: 0.000107 s⁻¹ for the first, 0.000125 s⁻¹ for the second.

B3 and B4 are within 1.5-fold of each other in koff: 0.000272 s⁻¹ for the first, 0.000259 s⁻¹ for the second.

B5 was tested, and the koff was 0.000158 s⁻¹.

Going from B1 to B2, the kon falls from 1.22e+06 M⁻¹ s⁻¹ to 94000 M⁻¹ s⁻¹ (13-fold).

B3 and B4 are within 1.5-fold of each other in kon: 185000 M⁻¹ s⁻¹ for the first, 236000 M⁻¹ s⁻¹ for the second.

B5 showed a kon of 168000 M⁻¹ s⁻¹.

B1 and B2 are within 1.5-fold of each other in t½: 108 min for the first, 92 min for the second.

B3 and B4 are within 1.5-fold of each other in t½: 42 min for the first, 45 min for the second.

B5 showed a t½ of 73 min.

Target: T2, hRET.mmh
Assay: SPR Biacore T200, mAb capture, 37 C
Protocol: as §1

Compared with B1, B2 is 6.4-fold higher in Kd: 0.968 nM for the first, 6.23 nM for the second. The first binds more tightly here.

Compared with B3, B4 is 2.1-fold lower in Kd: 8.88 nM for the first, 4.18 nM for the second.

B5 was tested, and the Kd was 7.31 nM.

B1 and B2 are within 1.5-fold of each other in koff: 0.00123 s⁻¹ for the first, 0.000897 s⁻¹ for the second.

B3 and B4 are within 1.5-fold of each other in koff: 0.00289 s⁻¹ for the first, 0.00221 s⁻¹ for the second.

With B5 the koff was 0.00116 s⁻¹.

First: B1
Second: B2
The kon of the first is 8.8-fold higher: 1.27e+06 M⁻¹ s⁻¹ for the first, 144000 M⁻¹ s⁻¹ for the second.

First: B3
Second: B4
The kon of the first is 1.6-fold lower: 326000 M⁻¹ s⁻¹ for the first, 528000 M⁻¹ s⁻¹ for the second.

Binder B5 has a kon of 159000 M⁻¹ s⁻¹.

B1 and B2 are within 1.5-fold of each other in t½: 9 min for the first, 13 min for the second.

B3 and B4 are within 1.5-fold of each other in t½: 4 min for the first, 5 min for the second.

For B5, the t½ was 10 min.

Target: T1, Macaca fascicularis (mf) RET.mmh
Assay: SPR Biacore T200, mAb capture, 37 C
Protocol: as §1

First: B1
Second: B2
The Kd of the first is 5.3-fold lower: 1.57 nM for the first, 8.3 nM for the second. The first binds more tightly here.

First: B3
Second: B4
The Kd of the first is 2.5-fold higher: 10.3 nM for the first, 4.16 nM for the second.

Work on B5 yielded a Kd of 196 nM.

B1 and B2 are within 1.5-fold of each other in koff: 0.00131 s⁻¹ for the first, 0.00126 s⁻¹ for the second.

B3 and B4 are within 1.5-fold of each other in koff: 0.00313 s⁻¹ for the first, 0.00226 s⁻¹ for the second.

Work on B5 yielded a koff of 0.0603 s⁻¹.

Compared with B1, B2 is 5.5-fold lower in kon: 836000 M⁻¹ s⁻¹ for the first, 152000 M⁻¹ s⁻¹ for the second.

Going from B3 to B4, the kon rises from 303000 M⁻¹ s⁻¹ to 543000 M⁻¹ s⁻¹ (1.8-fold).

B5 gave a kon of 307000 M⁻¹ s⁻¹.

B1 and B2 are the same in t½: 9 min for the first, 9 min for the second.

B3 and B4 are within 1.5-fold of each other in t½: 4 min for the first, 5 min for the second.

Work on B5 yielded a t½ of 0.2 min.

Target: T3, hRET.mFc
Assay: SPR Biacore T200, mAb capture, 37 C
Protocol: as §1

Going from B1 to B2, the Kd rises from 0.349 nM to 5.5 nM (16-fold). The first binds more tightly here.

Going from B3 to B4, the Kd falls from 5.62 nM to 2.18 nM (2.6-fold).

B5 gave a Kd of 2.24 nM.

B1 and B2 are within 1.5-fold of each other in koff: 0.000441 s⁻¹ for the first, 0.00055 s⁻¹ for the second.

B3 and B4 are within 1.5-fold of each other in koff: 0.00128 s⁻¹ for the first, 0.00121 s⁻¹ for the second.

B5 was tested, and the koff was 0.000458 s⁻¹.

First: B1
Second: B2
The kon of the first is 13-fold higher: 1.26e+06 M⁻¹ s⁻¹ for the first, 99000 M⁻¹ s⁻¹ for the second.

First: B3
Second: B4
The kon of the first is 2.4-fold lower: 227000 M⁻¹ s⁻¹ for the first, 552000 M⁻¹ s⁻¹ for the second.

For B5, the kon was 204000 M⁻¹ s⁻¹.

B1 and B2 are within 1.5-fold of each other in t½: 26 min for the first, 21 min for the second.

B3 and B4 are within 1.5-fold of each other in t½: 9 min for the first, 10 min for the second.

B5 gave a t½ of 25 min.

Target: T2, hRET.mmh
Assay: competition sandwich ELISA: 1 nM biot-hRET.mmh + antibody, plate-coated GDNF/GFRα1 co-complex
Protocol: The ability of anti-RET antibodies to block the binding of human RET to pre-complexed plate bound GDNF:GFRα1 was assessed using a competition sandwich ELISA.
Antibody-RET mixtures were incubated for 1 hour at RT and then transferred to microtiter plates previously coated with the hGDNF/hGFRα1 co-complex. Binding was allowed to proceed for 1 hr at RT followed by extensive washing. […] Plates were read at 450 nm and data analysis used a sigmoidal dose-response model within Prism™ software.
The absorbance values of the wells containing the highest concentration for each antibody were used to determine the blocking percent at maximum concentration antibody tested.

Compared with B1, B2 is higher in “% Max Blocking” value: 92% for the first, 96% for the second.

Compared with B3, B4 is higher in “% Max Blocking” value: 73% for the first, 93% for the second.

With B5 the “% Max Blocking” value was 95%.

B1 and B2 cannot be ordered by IC50: < 0.25 nM for the first, < 0.25 nM for the second.

First: B4
Second: B5
The IC50 of the first is higher: 0.25 nM for the first, < 0.25 nM for the second. The second is the more potent here.
